Measured values published in PMC7346273 (ACS Omega, 2020).

Target: Aβ42 monomer (UniProt P05067 672-713)
Assay: NMR titration

Aβ42 monomer, sequence (P05067 672-713): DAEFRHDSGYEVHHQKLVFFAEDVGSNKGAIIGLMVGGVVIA

binding result: binds
B1: P_(active) (peptide)
peptide: GFLLHQK
